From patent US20030229005A1 (BIOZYME, published 2003) come the findings set out here.

Holding throughout (experiment): cell-based or functional assay
The target in test [1] is T1, human Gelatinase-A (human, UniProt P08253 110-660, limits assumed).
T1 sequence (looked up): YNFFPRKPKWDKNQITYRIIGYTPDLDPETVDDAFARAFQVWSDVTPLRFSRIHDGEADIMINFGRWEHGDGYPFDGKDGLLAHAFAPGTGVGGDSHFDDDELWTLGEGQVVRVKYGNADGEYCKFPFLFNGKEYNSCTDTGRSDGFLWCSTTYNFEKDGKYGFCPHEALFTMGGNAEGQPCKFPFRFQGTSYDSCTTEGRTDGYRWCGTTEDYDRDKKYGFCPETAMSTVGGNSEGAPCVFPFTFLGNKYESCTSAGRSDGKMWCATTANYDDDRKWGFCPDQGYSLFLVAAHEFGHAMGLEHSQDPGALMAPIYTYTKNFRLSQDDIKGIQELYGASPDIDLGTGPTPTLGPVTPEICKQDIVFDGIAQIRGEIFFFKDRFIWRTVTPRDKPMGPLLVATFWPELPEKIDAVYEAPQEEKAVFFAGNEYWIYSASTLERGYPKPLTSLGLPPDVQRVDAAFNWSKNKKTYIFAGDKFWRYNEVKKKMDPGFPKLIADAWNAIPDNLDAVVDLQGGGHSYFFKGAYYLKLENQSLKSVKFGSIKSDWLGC

Test [2] deals with gelatinase B (UniProt P14780 107-707, limits assumed).
Chain of gelatinase B (P14780 107-707 limits assumed): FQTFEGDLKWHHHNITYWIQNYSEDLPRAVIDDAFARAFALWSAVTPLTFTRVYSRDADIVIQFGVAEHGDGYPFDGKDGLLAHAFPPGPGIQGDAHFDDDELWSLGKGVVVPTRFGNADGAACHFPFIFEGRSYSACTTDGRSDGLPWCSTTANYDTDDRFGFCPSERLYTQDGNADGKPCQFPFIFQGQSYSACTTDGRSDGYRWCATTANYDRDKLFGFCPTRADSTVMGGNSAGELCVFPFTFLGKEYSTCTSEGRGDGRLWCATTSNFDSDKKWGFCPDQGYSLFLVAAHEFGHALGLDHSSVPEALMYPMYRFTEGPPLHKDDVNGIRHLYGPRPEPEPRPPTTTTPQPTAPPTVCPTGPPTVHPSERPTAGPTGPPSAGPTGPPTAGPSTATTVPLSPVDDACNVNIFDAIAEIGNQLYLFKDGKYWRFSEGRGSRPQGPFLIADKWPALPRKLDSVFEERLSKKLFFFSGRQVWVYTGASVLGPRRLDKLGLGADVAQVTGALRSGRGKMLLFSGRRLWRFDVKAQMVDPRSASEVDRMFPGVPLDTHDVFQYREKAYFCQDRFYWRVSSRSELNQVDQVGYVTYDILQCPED
Test [3] concerns the target T2, collagenase 1 (UniProt P03956 100-469, limits assumed).
T2 sequence (looked up): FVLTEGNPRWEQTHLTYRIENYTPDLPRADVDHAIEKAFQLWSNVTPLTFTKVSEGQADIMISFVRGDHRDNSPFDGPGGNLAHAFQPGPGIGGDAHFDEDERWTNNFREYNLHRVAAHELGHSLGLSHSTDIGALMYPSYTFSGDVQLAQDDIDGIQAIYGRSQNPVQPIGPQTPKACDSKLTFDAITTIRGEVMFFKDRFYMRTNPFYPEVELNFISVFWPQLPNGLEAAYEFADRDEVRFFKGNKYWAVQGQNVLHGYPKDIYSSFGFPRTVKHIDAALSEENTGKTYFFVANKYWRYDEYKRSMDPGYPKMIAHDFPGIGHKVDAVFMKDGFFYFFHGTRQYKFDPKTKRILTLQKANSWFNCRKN

Test [4] has as its target stromelysin 1 (UniProt P08254 100-477, limits assumed).

*1 amine or outer side, *2 acyl side, *3 side chain or, on linkers, in order; H or OH if unused. [ ]: non-standard residue; d: D form. The star is where a group is joined. Dnp = O=[N+]([O-])c1ccc(*)c([N+](=O)[O-])c1; C(Me) = CSC[C@H](N[*:1])C(=O)[*:2]

Chain of stromelysin 1 (P08254 100-477 limits assumed): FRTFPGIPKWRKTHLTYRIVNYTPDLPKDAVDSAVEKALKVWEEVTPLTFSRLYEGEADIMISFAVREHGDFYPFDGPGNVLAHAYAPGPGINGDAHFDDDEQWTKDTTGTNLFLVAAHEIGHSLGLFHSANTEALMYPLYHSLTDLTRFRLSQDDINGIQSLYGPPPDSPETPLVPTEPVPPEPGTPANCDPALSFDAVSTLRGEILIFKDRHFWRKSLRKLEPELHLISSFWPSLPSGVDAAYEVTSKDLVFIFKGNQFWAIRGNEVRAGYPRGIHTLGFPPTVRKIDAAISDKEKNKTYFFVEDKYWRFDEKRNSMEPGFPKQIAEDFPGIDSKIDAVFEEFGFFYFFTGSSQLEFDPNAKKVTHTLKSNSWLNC

B1: Dnp-…(Me)YLG-NH2 (peptide)
peptide: Dnp-DEGPMGLK[C(Me)]YLG-NH2
SMILES: CSCC[C@H](NC(=O)[C@@H]1CCCN1C(=O)CNC(=O)[C@H](CCC(=O)O)NC(=O)[C@H](CC(=O)O)Nc1ccc([N+](=O)[O-])cc1[N+](=O)[O-])C(=O)NCC(=O)N[C@@H](CC(C)C)C(=O)N[C@@H](CCCCN)C(=O)N[C@@H](CSC)C(=O)N[C@@H](Cc1ccc(O)cc1)C(=O)N[C@@H](CC(C)C)C(=O)NCC(N)=O
As to B1, the “Selectivity v. Coll-3” value in test [1] stood at 9 unitless; in test [2] it was 4 unitless; in test [3], 452 unitless; in test [4], 468 unitless.

B2: Dnp-GPRPFRG-NH2 (peptide)
peptide: Dnp-GPRPFRG-NH2
SMILES: N=C(N)NCCC[C@H](NC(=O)[C@H](Cc1ccccc1)NC(=O)[C@@H]1CCCN1C(=O)[C@H](CCCNC(=N)N)NC(=O)[C@@H]1CCCN1C(=O)CNc1ccc([N+](=O)[O-])cc1[N+](=O)[O-])C(=O)NCC(N)=O
In the case of B2, the results for the “Selectivity v. Coll-3” value in test [1], in test [2] and in test [3] were 9 unitless, 4 unitless and 4200 unitless, respectively.

B3: Dnp-GPINLHG-NH2 (peptide)
peptide: Dnp-GPINLHG-NH2
SMILES: CC[C@H](C)[C@H](NC(=O)[C@@H]1CCCN1C(=O)CNc1ccc([N+](=O)[O-])cc1[N+](=O)[O-])C(=O)N[C@@H](CC(N)=O)C(=O)N[C@@H](CC(C)C)C(=O)N[C@@H](Cc1c[nH]cn1)C(=O)NCC(N)=O
For the molecule B3, the “Selectivity v. Coll-3” value in test [1] worked out at 28 unitless; in test [2] it was 15 unitless; in test [3] it was 180 unitless; in test [4], 1110 unitless.

B4: Dnp-…(Me)-NH2 (peptide)
peptide: Dnp-GPVNLHGR[C(Me)]-NH2
SMILES: CSC[C@H](NC(=O)[C@H](CCCNC(=N)N)NC(=O)CNC(=O)[C@H](Cc1c[nH]cn1)NC(=O)[C@H](CC(C)C)NC(=O)[C@H](CC(N)=O)NC(=O)[C@@H](NC(=O)[C@@H]1CCCN1C(=O)CNc1ccc([N+](=O)[O-])cc1[N+](=O)[O-])C(C)C)C(N)=O
Consider B4, for which the “Selectivity v. Coll-3” value in test [1] was 9 unitless; in test [2] it was 2 unitless; in test [3], 2120 unitless; in test [4], 510 unitless.

B5: Dnp-GPFGLKG-NH2 (peptide)
peptide: Dnp-GPFGLKG-NH2
SMILES: CC(C)C[C@H](NC(=O)CNC(=O)[C@H](Cc1ccccc1)NC(=O)[C@@H]1CCCN1C(=O)CNc1ccc([N+](=O)[O-])cc1[N+](=O)[O-])C(=O)N[C@@H](CCCCN)C(=O)NCC(N)=O
On to B5, for which the “Selectivity v. Coll-3” value stood at 26 unitless in test [1], 3 unitless in test [2], 408 unitless in test [3] and 1380 unitless in test [4].

B6: Dnp-GPHPMRG-NH2 (peptide)
peptide: Dnp-GPHPMRG-NH2
SMILES: CSCC[C@H](NC(=O)[C@@H]1CCCN1C(=O)[C@H](Cc1c[nH]cn1)NC(=O)[C@@H]1CCCN1C(=O)CNc1ccc([N+](=O)[O-])cc1[N+](=O)[O-])C(=O)N[C@@H](CCCNC(=N)N)C(=O)NCC(N)=O
Take B6: the “Selectivity v. Coll-3” value came to 12 unitless in test [1], 4 unitless in test [2], 526 unitless in test [3] and 287 unitless in test [4].

B7: Dnp-PSGIHL-NH2 (peptide)
peptide: Dnp-PSGIHL-NH2
SMILES: CC[C@H](C)[C@H](NC(=O)CNC(=O)[C@H](CO)NC(=O)[C@@H]1CCCN1c1ccc([N+](=O)[O-])cc1[N+](=O)[O-])C(=O)N[C@@H](Cc1c[nH]cn1)C(=O)N[C@@H](CC(C)C)C(N)=O
Consider B7, for which the “Selectivity v. Coll-3” value in test [1] was 2 unitless; in test [2] it was 2 unitless; in test [3], 1320 unitless.

B8: Dnp-GPLSISG-NH2 (peptide)
peptide: Dnp-GPLSISG-NH2
SMILES: CC[C@H](C)[C@H](NC(=O)[C@H](CO)NC(=O)[C@H](CC(C)C)NC(=O)[C@@H]1CCCN1C(=O)CNc1ccc([N+](=O)[O-])cc1[N+](=O)[O-])C(=O)N[C@@H](CO)C(=O)NCC(N)=O
As to B8, the “Selectivity v. Coll-3” value stood at 7 unitless in test [1], 1 unitless in test [2] and 11 unitless in test [3].

B9: Dnp-GPLGMRG-NH2 (peptide)
peptide: Dnp-GPLGMRG-NH2
SMILES: CSCC[C@H](NC(=O)CNC(=O)[C@H](CC(C)C)NC(=O)[C@@H]1CCCN1C(=O)CNc1ccc([N+](=O)[O-])cc1[N+](=O)[O-])C(=O)N[C@@H](CCCNC(=N)N)C(=O)NCC(N)=O
For B9, in test [1], the “Selectivity v. Coll-3, + 1:1 Gelatin” value stood at 41 unitless; the “Selectivity v. Coll-3, + 1:4 Gelatin” value is 46 unitless; the “Selectivity v. Coll-3, + 1:16 Gelatin” value is 84 unitless; the “Selectivity v. Coll-3, + 1:64 Gelatin” value came out at 69 unitless. Also, in test [1], the “Selectivity v. Coll-3, + 1:256 Gelatin” value turned out to be 73 unitless and the “Selectivity v. Coll-3, + H2O” value turned out to be 6 unitless. In addition, in test [2], the “Selectivity v. Coll-3, + 1:1 Gelatin” value amounted to 5 unitless; the “Selectivity v. Coll-3, + 1:4 Gelatin” value was 5 unitless; the “Selectivity v. Coll-3, + 1:16 Gelatin” value turned out to be 13 unitless; the “Selectivity v. Coll-3, + 1:64 Gelatin” value stood at 13 unitless. In addition, in test [2], the “Selectivity v. Coll-3, + 1:256 Gelatin” value turned out to be 18 unitless and the “Selectivity v. Coll-3, + H2O” value is 2 unitless. Further, in test [3], the “Selectivity v. Coll-3, + 1:1 Gelatin” value is 91 unitless; the “Selectivity v. Coll-3, + 1:4 Gelatin” value was 96 unitless; the “Selectivity v. Coll-3, + 1:16 Gelatin” value amounted to 215 unitless; the “Selectivity v. Coll-3, + 1:64 Gelatin” value turned out to be 236 unitless. In test [3], the “Selectivity v. Coll-3, + 1:256 Gelatin” value was 378 unitless and the “Selectivity v. Coll-3, + H2O” value turned out to be 245 unitless.

B10: Dnp-GPMSYNG-NH2 (peptide)
peptide: Dnp-GPMSYNG-NH2
SMILES: CSCC[C@H](NC(=O)[C@@H]1CCCN1C(=O)CNc1ccc([N+](=O)[O-])cc1[N+](=O)[O-])C(=O)N[C@@H](CO)C(=O)N[C@@H](Cc1ccc(O)cc1)C(=O)N[C@@H](CC(N)=O)C(=O)NCC(N)=O
For B10, the “Selectivity v. Coll-3” value in test [1] turned out to be 5 unitless; in test [2], 3 unitless; in test [3], 201 unitless.

B11: Dnp-PINLHG-NH2 (peptide)
peptide: Dnp-PINLHG-NH2
SMILES: CC[C@H](C)[C@H](NC(=O)[C@@H]1CCCN1c1ccc([N+](=O)[O-])cc1[N+](=O)[O-])C(=O)N[C@@H](CC(N)=O)C(=O)N[C@@H](CC(C)C)C(=O)N[C@@H](Cc1c[nH]cn1)C(=O)NCC(N)=O
For the molecule B11, the “Selectivity v. Coll-3” value turned out to be 9 unitless in test [1], 4 unitless in test [2], 101 unitless in test [3] and 824 unitless in test [4].

B12: Dnp-GPVNLHGC(Me)-NH2 (peptide)
peptide: Dnp-GPVNLHG[C(Me)]-NH2
SMILES: CSC[C@H](NC(=O)CNC(=O)[C@H](Cc1c[nH]cn1)NC(=O)[C@H](CC(C)C)NC(=O)[C@H](CC(N)=O)NC(=O)[C@@H](NC(=O)[C@@H]1CCCN1C(=O)CNc1ccc([N+](=O)[O-])cc1[N+](=O)[O-])C(C)C)C(N)=O
As to B12, the “Selectivity v. Coll-3” value came out at 15 unitless in test [1], 3 unitless in test [2], 1390 unitless in test [3] and 770 unitless in test [4].

B13: Dnp-GPLQMRG-NH2 (peptide)
peptide: Dnp-GPLQMRG-NH2
SMILES: CSCC[C@H](NC(=O)[C@H](CCC(N)=O)NC(=O)[C@H](CC(C)C)NC(=O)[C@@H]1CCCN1C(=O)CNc1ccc([N+](=O)[O-])cc1[N+](=O)[O-])C(=O)N[C@@H](CCCNC(=N)N)C(=O)NCC(N)=O
Regarding B13, the “Selectivity v. Coll-3” value stood at 15 unitless in test [1], 1 unitless in test [2], 290 unitless in test [3] and 311 unitless in test [4].

B14: Dnp-PLGMRG-NH2 (peptide)
peptide: Dnp-PLGMRG-NH2
SMILES: CSCC[C@H](NC(=O)CNC(=O)[C@H](CC(C)C)NC(=O)[C@@H]1CCCN1c1ccc([N+](=O)[O-])cc1[N+](=O)[O-])C(=O)N[C@@H](CCCNC(=N)N)C(=O)NCC(N)=O
In the case of B14, the “Selectivity v. Coll-3” value was determined as 2 unitless in test [1], 1 unitless in test [2] and 73 unitless in test [3].
